From patent publication US12624096B2, “Anti-tau antibodies and methods of use thereof” (GTInvent Limited, priority 2020, dated 2026) come the findings set out here.

“Also recorded” adds a separate entry of the source.

One data set concerns the target hT40 (Homo sapiens, UniProt P10636). The experiment in a line: Biacore X100 SPR, scAb captured via anti-HuCk, hT40 as analyte. The class given is binding. The following applies: scAb, Table 23, T441 (hT40). Put shortly: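 Captured scAb on anti-HuCk CM5 surface (flow cell 1 as reference) in HBS-EP+, capture set for theoretical RMax 100 RU; hT40 injected multi-cycle (0.15625–100 nM) or single-cycle (6.25–100 nM), 120 s association, 420 s dissociation, glycine pH 2.0 regeneration. Kinetics and affinity from 1:1 binding model fit.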
(In general: In SPR one partner is held on a chip, and binding of the other changes the refractive index at the surface.)

The target in data set [1] is T1, dGAE (Homo sapiens, UniProt P10636). The experiment in a line: dGAE fibril assembly, transmission electron microscopy. The class given is biochemical. The following applies: dGAE:antibody 4:1 or 1:1, 700 rpm, 37° C., 3 days. Here is the method: (§1) dGAE protein was diluted into 10 mM phosphate buffer, pH 7.4 (PB) with monoclonal antibody s1D12 at a ratio of 4:1 protein: Ab (100 μM dGAE+25 μM s1D12 and 10 μM dGAE+2.5 μM s1D12) or 1:1 (25 μM dGAE+25 μM s1D12).
(§2) As a positive control, dGAE was prepared at a final concentration of 10, 25 or 100 μM in 10 mM PB. Negative controls consisted of dGAE with a non-tau IgG antibody at a ratio of 4:1 (10 μM dGAE+2.5 μM anti-ovalbumin), or antibody alone (25 or 2.5 μM s1D12 and 2.5 μM anti-ovalbumin). Samples were agitated at 700 rpm at 37° C., for 3 days.
Transmission electron microscopy (TEM), circular dichroism (CD) and Thioflavin S (ThS) assays were performed as detailed in Al-Hilaly et, al. (2018) J. Mol. Biol. 430, 4119-4131. Briefly, TEM grids were prepared by adding 4 μL of sample to a carbon-coated grid followed by a wash with milli-Q filtered water then staining twice with 2% uranyl acetate. Grids were air dried and then imaged using a JEOL electron microscope operating at 80 kV.

Data set [2] concerns the target T1, dGAE. Nature of the data set: dGAE fibril assembly, circular dichroism. The class given is biochemical. The note with it: 100 μM dGAE + 25 μM antibody (4:1), antibody spectrum subtracted. Here is the method: as §1, §2
For CD, 60 μL sample was placed in a 0.1 mm quartz cuvette and placed into a JASCO spectropolarimeter. 100 μL ThS in 20 mM MOPS buffer was added to 50 μL of each sample to a final concentration of 20 μM, mixed well, incubated at room temperature for 10 minutes then fluorescence intensity measured in a Cary Eclipse spectrophotometer using an excitation wavelength of 440 nm. Baseline readings from 10 mM PB were subtracted from CD and ThS measurements.

In another data set the target is dGAE aggregates (Homo sapiens, UniProt P10636). The experiment in a line: Sandwich ELISA on SDS/Triton X-100 treated dGAE aggregates. The class given is binding. Here is the method: For aggregation, 1000 μL 100 μM dGAE+10 μL 10 mM DTT was added to a ‘LoBind’ microfuge tubes and agitated at 700 RPM/37° C., for 24 hours. Resulting sample centrifuged at 17,000×g/4° C., for 60 min and supernatant discarded to remove left over monomer. Pellet resuspended in half the original volume for future experiments and hereafter referred to as ‘aggregates’. 1 μl of aggregates was added to 1 ml of PBS and SDS was added to a final concentration of 1% (w/v). This was left to incubate on lab bench for 1 h with gentle agitation every 15 minutes. In order to neutralise the SDS effect on ELISA, Triton X-100 added to a final concentration of 3% (v/v) and mixed gently by pipetting to prevent any bubble formation. […] Similarly aggregates treated with only SDS or Triton X-100, untreated aggregates, dGAE monomers treated with only SDS or SDS+Titon X-100 were also added to designated wells as controls. All samples were then double diluted across the plate in final volumes of 100 μl. The final column was left with no protein to act as a blank. This was allowed to stand at room temperature for 1 hour followed by the addition of detection scAb-S1G2 at 10 μg/ml. Anti-HuCk HRP labelled secondary antibody was added as described previously and ELISA data generated was represented using the graph below. In addition, limits of detection (LoD) of various core binding antibody pairing for SDS Triton X-100 treated dGAE aggregates were calculated using the above describe ELISA method and substituting capture mAbs and detection scAbs as shown in Table 30.
dGAE aggregates, sequence (P10636 614-708): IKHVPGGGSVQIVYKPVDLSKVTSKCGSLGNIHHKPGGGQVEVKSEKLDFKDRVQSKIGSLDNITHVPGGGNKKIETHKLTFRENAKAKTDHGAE

hT40, sequence (P10636 1-441 isoform P10636-8): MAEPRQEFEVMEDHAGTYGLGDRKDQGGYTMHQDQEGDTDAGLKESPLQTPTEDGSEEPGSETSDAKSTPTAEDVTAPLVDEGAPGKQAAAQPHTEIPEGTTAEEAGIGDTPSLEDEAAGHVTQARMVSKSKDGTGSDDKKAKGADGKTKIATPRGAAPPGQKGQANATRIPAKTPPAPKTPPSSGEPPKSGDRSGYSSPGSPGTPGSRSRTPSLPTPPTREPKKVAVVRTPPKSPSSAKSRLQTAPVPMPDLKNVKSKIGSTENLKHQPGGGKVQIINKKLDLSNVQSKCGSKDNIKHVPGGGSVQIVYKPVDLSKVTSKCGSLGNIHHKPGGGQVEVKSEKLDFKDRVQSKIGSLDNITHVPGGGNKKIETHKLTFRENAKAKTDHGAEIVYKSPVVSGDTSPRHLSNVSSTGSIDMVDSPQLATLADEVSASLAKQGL
T1 sequence (P10636 614-708): as the sequence (P10636 614-708) above

B1: S1D12: anti-tau clone from immunised sheep, SEQ ID NO: 32 (protein)
scFv: QVQLQESGPSLVKPSQTLSLTCTVSGFSLNNNAVGWVRQAPGKVPESLVGCSSDGTCYYNSALKSRLDITRDTSKNQISLSLSSVTTDDAAVYYCTRGHYSIYGYDYLGTIDYWGPGLLVTVSSEGKSSGASGESKVDDQAVLTQPSSVSGSLGQRVSITCSGSSSNVGGGNSVGWYQHLPGSGLKTIIYDTNSRPSGVPDRFSGSRSGNTATLTINSLQAEDEGDYYCVTGDSTTHDDLVGSGTRLTVLG
modifications: S1D12 amino acid sequence
In the data set with hT40, B1 gave a ka of 1.252e+06 M⁻¹ s⁻¹ and a kd of 0.00015 s⁻¹. Moreover, in the data set with dGAE [1], the “dGAE fibrils observed by TEM” value is “no fibrils were present; also recorded: no fibril formation is observed”. The “dGAE secondary structure by CD” value in the data set with dGAE [2] is listed as “dGAE cannot assemble into β-sheet rich fibrils; also recorded: indicating that dGAE has not assembled into fibrils”.

B2: S1G2: anti-tau clone, SEQ ID NO: 81 (protein)
scFv: QVQLQESGPSLVKPSQTLSLTCTVSGFSLTSNSVGWVRQAPGKAPEWVAGIDTDGEEGYNPALNSRLSITRDTSKSQVSLSLSSVTSEDTAVYYCGRSYRADGLAYGYVQAIDYWGPGLLVTVSSEGKSSGASGESKVDDQAVVTQPSSVSGSLGQRVSITCSGSFIGISSVGWFQQLPGSGLRTIIVASDGRPSGVPDRFSMSKSGNTATLTISSLQAEDEADYFCGSSDRTPYTGVFGSGTRLTVLG
modifications: S1G2 amino acid sequence
In the data set with hT40, B2 registered a ka of 1.057e+06 M⁻¹ s⁻¹ and a kd of 0.00018 s⁻¹. In the data set with dGAE aggregates (S1D12 mAb capture, untreated dGAE agg.), this molecule gave a LoD of 250 ng/mL. The same molecule returned a LoD with dGAE aggregates (direct immobilisation of dGAE aggregates, +SDS Triton) of 16 ng/mL.
